{"source": "patent US6710165B2", "about": "“IgE-dependent histamine-releasing factor-binding peptides” (priority 2000, dated 2004)", "molecules": {"B1": {"name": "HRF: recombinant full-length rat HRF overexpressed in E. coli; protein consisting of 172 amino acids (protein)", "chain": "MIIYRDLISHDELFSDIYKIREIADGLCLEVEGKMVSRTEGAIDDSLIGGNASAEGPEGEGTESTVVTGVDIVMNHHLQETSFTKEAYKKYIKDYMKSLKGKLEEQKPERVKPFMTGAAEQIKHILANFNNYQFFIGENMNPDGMVALLDYREDGVTPFMIFFKDGLEMEKC", "modifications": "left off: small tags and cut ends", "notes": "recombinant full-length rat HRF overexpressed in E. coli; protein consisting of 172 amino acids"}}, "key": {"[1]": {"tested_on": "(Na,K)ATPase large cytoplasmic loop", "assay": "Coimmunoprecipitation in yeast cells", "assay_type": "binding, rat", "procedure": "In Glucosyl Ura-His-Trp- and galactosyl Ura-His-Trp-media, yeast cells transformed with the constructs prepared in Example 1 were grown, and the cells were harvested by centrifugation at 3,000×g for 5 minutes. The harvested cells were resuspended in yeast lysis buffer (YLB: 50 mM Tris pH 8.0, 5 mM MgCl2, 150 mM NaCl, 50 mM NaF, 2 mM ZnCl2, protease inhibitor cocktail) and subsequently, the suspension was added to glass beads and vortexed. Thereto was added RIPA buffer (10 mM Tris pH 8.0, 100 mM NaCl, 1 mM EDTA, 1% NP4O, 0.5% sodium deoxycholate, 0.1% SDS) and then, the whole mixture was centrifuged at 10,000×g, 4° C. for 30 minutes.\nTo the cell extracts as prepared above, IgG sorb (The Enzyme Center, Inc.) was added and then, the mixture was incubated at 4° C. for 30 minutes and centrifuged at 10,000×g for 5 minutes. Thereto was added affinity-purified anti-HA 12CA5 monoclonal antibodies and then, the resulting mixture was incubated for 3 hours or overnight at 4° C. 50% protein A agarose solution (Roche, USA) was added to the above immunocomplex and the whole mixture was incubated at 4° C. for 4 hours. After centrifugation for 5 seconds, the obtained pellets were washed with RIPA buffer and washing buffer (1 M NaCl, 10 mM Tris pH 8.0, 0.1% NP4O), respectively. The pellets were resuspended in 2×SDS sample buffer and then, the suspension was loaded onto SDS-PAGE gel. […]"}, "[2]": {"tested_on": "(Na,K)ATPase large cytoplasmic loop", "assay": "Coimmunoprecipitation in COS-7 cells", "assay_type": "binding", "settings": "HA-tagged HRF", "procedure": "Subsequently, to examine such interaction in mammalian cells, COS-7 cells were grown in DMEM^+ culture (Dulbeccos modified Eagles medium containing 10% fetal bovine serum, 100 units/ml penicillin and 100 units/ml streptomycin). The cells were transfected with N-terminal HA-tagged HRF constructs inserted to pCDNAneo vector (Invitrogen). COS-7 cell extracts were immunoprecipitated according to the method of Florkiewicz, et al. (1998). To detect the interactive protein, rabbit polyclonal anti-(Na,K)ATPase antibodies were added thereto."}, "[3]": {"tested_on": "COS-7 cells", "assay": "HRF's capability of transiting cell membrane (confocal microscopy, Western blotting)", "assay_type": "cell-based", "settings": "recombinant rat HRF added to COS-7 cell culture solution", "procedure": "The full-length rat HRF sequence (Chitpatima, et al., 1988) amplified by PCR (polymerase chain reaction) was cloned in pRSET-A vector and then, overexpressed in E. coli. The expressed recombinant protein was purified by His-bound Ni column (Novagen) and then, added to COS-7 cell culture solution. COS-7 cells were immobilized with 3.7% formaldehyde containing Ca^2+ and Mg^2+ for 10 minutes. Then, the cells were stained with anti-His monoclonal antibodies (1:100) containing 0.1% saponin at room temperature for 1 hour. Subsequently, they were incubated with anti-mouse-FITC (1:100) secondary antibodies for 30 minutes. Anti-bleaching agent solution was added thereto and then, observation was made under laser confocal microscope (Leica TCSNT system).\nFurther, COS-7 cells cultivated in 100 mm culture plate were treated according to the above method. Then, the cells were divided into cytoplasmic fraction and cell membrane fraction. They were loaded onto 10% SDS-PAGE gel and then, Western blotting was carried out using anti-His monoclonal antibodies.\nAs shown in the figures, HRF was detected within the cells at 1 minute after its addition."}, "[4]": {"tested_on": "RBL-2H3 cells", "assay": "Intracellular Na+ concentration (sodium green fluorescence)", "assay_type": "cell-based", "settings": "IgE-sensitized RBL-2H3 cells, HRF 10˜20 μg/ml", "procedure": "RBL-2H3 cells were loaded onto 24-well plate at 3.0×10^5˜1×10^6 cells/ml and cultivated at 37° for 18 hours. Hams F-12 culture (phenol red or serum-free 2 mM sodium bicarbonate and 10 mM HEPES, pH 7.3) was mixed with sodium green tetracetate dye (Molecular Probes, Eugene, Oreg.) at a final concentration of […] and the mixture was loaded onto the cells (Amorino and Fox, 1995). The cells were sensitized with 0.2 μg/ml of rat IgE (Serotec) for 45˜60 minutes and then, cultivated at room temperature for about 20˜60 minutes and washed three times with F-12 medium. Subsequently, thereto was added HRF (10˜20 μg/ml) in histamine releasing buffer and then, fluorescence was measured with microtiter reader (FL600, Bio-tek Instruments, Inc., Winooski, Vt.) at 485/530 nm for 15 minutes. The mixed solution of Na^+ and K^+ at an appropriate concentration was measured using gramicidin D (Sigma) as calibration (Amorino and Fox, 1995)."}, "[5]": {"tested_on": "(Na,K)ATPase", "assay": "Inhibitory activity on (Na,K)ATPase (86Rb+ tracer, K+-uptake)", "assay_type": "cell-based", "settings": "10˜20 μg/ml HRF", "procedure": "RBL-2H3 cells were cultivated and sensitized according to the same procedures as in Example 6 and then, washed three times with Krebs-Ringer buffer (KRP, 140 mM NaCl, 5 mM KCl, 10 mM Na2HPO4, 1 mM MgSO4, 1.4 mM CaCl2, 2.5 mM glucose, pH 7.4). Subsequently, the cells were incubated at 37° C. for 15 minutes and then, thereto was added 0.1% bovine serum albumin (BSA)-containing KRP buffer comprising 1 mM ouabain. ^86Rb^+([…], NEN) was used as a tracer and the cells were cultivated for 5˜10 minutes. 10˜20 µg/ml HRF was added thereto and K^+-uptake was measured for 5, 10 and 15 minutes, respectively."}, "[6]": {"tested_on": "PC12 cells", "assay": "Inhibition of HRF-stimulated dopamine release by HRF-binding peptide", "assay_type": "cell-based", "settings": "15 μg/ml of HRF", "procedure": "In order to confirm whether the peptides blocking histamine release by HRF also block neurotransmitters release in nerve cells, the peptide of SEQ ID No. 14 (p2) was tested for its effects on dopamine release stimulated by HRF according to the substantially same procedure as in Example 16."}}, "data": [{"molecule": "B1", "values": [{"measurement": "interaction with (Na,K)ATPase large cytoplasmic loop, coimmunoprecipitation", "setting": "[1]", "value": "interaction between HRF and (Na,K)ATPase large cytoplasmic loop could be confirmed"}, {"measurement": "interaction with (Na,K)ATPase large cytoplasmic loop, coimmunoprecipitation", "setting": "[2]", "value": "interacted with (Na,K)ATPase large cytoplasmic loop"}, {"measurement": "time after addition at which HRF was detected within the cells", "setting": "[3]", "value": 1, "unit": "min"}, {"measurement": "effect on intracellular Na+ concentration", "setting": "[4]", "value": "increased the intracellular Na^+ concentration"}, {"measurement": "decrease of (Na,K)ATPase activity", "setting": "[5]; K+-uptake measured for 5 minutes", "value": 10.8, "unit": "%"}, {"measurement": "decrease of (Na,K)ATPase activity", "setting": "[5]; K+-uptake measured for 10 minutes", "value": 40.4, "unit": "%"}, {"measurement": "decrease of (Na,K)ATPase activity", "setting": "[5]; K+-uptake measured for 15 minutes", "value": 50.7, "unit": "%"}, {"measurement": "increase of dopamine release", "setting": "[6]", "value": "about 110%"}]}]}
